Data: publication PMC9011732

How the values were obtained:
[1] = target: monomeric wild-type RBD (319-541) of the SARS-CoV-2 spike (S)-protein (SARS-CoV-2 (Wuhan-Hu-1 isolate)) (UniProt P0DTC2); test: SEC
[2] = target: tRBD-TA, truncated RBD (319-537) with T323 mutated to alanine (SARS-CoV-2 (Wuhan-Hu-1 isolate)) (UniProt P0DTC2); test: SEC

| Substance | proportion of dimer in the preparation [1] | stoichiometry N [1] | percent of the protein dimerized after 7 days at 25°C [2] | proportion of dimer in the preparation [2] |
| --- | --- | --- | --- | --- |
| monomeric wild-type RBD (319-541) of the SARS-CoV-2 spike (S)-protein (from UniProt P0DTC2 319-541) (domain or fragment) | 20 to 25% | 2 |  |  |
| tRBD-TA, truncated RBD (319-537) with T323 mutated to alanine (from UniProt P0DTC2 319-537) (domain or fragment) |  |  | 10% | 25 to 28% |
